{"source": "patent US20250236667A1", "about": "“ANTIBODIES TO MUTANT CALRETICULIN AND USES THEREOF” (CENTRAL ADELAIDE LOCAL HEALTH NETWORK INC, priority 2021, published 2025)", "molecules": {"B1": {"name": "4D7: rat monoclonal IgG2a antibody against the mutant CALR neoepitope; VH SEQ ID NO: 5, VL SEQ ID NO: 7 (antibody, listed as Rattus rattus, V domains shown)", "VH": "QVQLQQSGAELAKPGSSVKISCKASGYTFTNYDMSWIKQRPGQALEWIGAINPGNGVTDYNEKFRGKATLTVDKSSSTAFMQLSSLTPEDTAVYHCAREYRDNYGYFDYWGQGVMVTVSS", "VL": "DIVLTQTPVSLSVTLGDQASISCRSSQSLEYSDGYTYLDWFLQKPGQSPQLLIYEVSSRFSGVPDRFIGRGSGTDFTLKISRVEPEDLGVYYCFQATHDPFTFGSGTKLEIK"}}, "format_in_all_cases": "cell-based, human", "key": {"[1]": {"system": "TF-1 TpoR CALR^del61 and TF-1 TpoR CALR^del52 cells", "experiment": "Western blot of caspase 3 cleavage", "details": "after 4D7 treatment, 20 μg/mL", "method": "A. Cell extracts blotted for phospho-STAT5, total STAT5, phospho-ERK, total ERK and actin from TF-1 TpoR cells after incubation with 10 or 20 μg/mL 4D7 or IgG for 4 or 8 hours, in presence of TPO. The last line indicates TPO withdrawal. B. Similar experiment using TPO-independent TF-1 TpoR CALR^del61 cells. C. Similar experiment using TPO-independent TF-1 TpoR CALR^del52 cells at 8 hours. D. Fraction of apoptotic sub-Go population of TF-1 TpoR CALR^del61 cells after 48 hours of 4D7 or IgG treatment (n=3). E. Western blot showing caspase 3 cleavage occurring within 24 hours of TPO withdrawal in TPO dependent TF-1 TpoR cells. An increase in cleaved caspase 3 is observed after 48 hours of treatment with 20 μg/mL 4D7 in TF-1 TpoR CALR^del61 and TF-1 TpoR CALR^del52 cells. F. Western blot of TpoR immunoprecipitation under non-reducing conditions showing associated CALR 50 kDa monomers and 100 kDa dimers (arrowheads) present only in TF-1 TpoR CALR^del61 disrupted by 8 hour treatment with 20 μg/mL 4D7 but not PBS or 20 μg/mL IgG. CALR monomers & dimers are detectable by polyclonal anti-wild type CALR or anti-mutant CALR monoclonal antibodies. Arrowheads, detected mutant CALR protein: asterisk, non-specific bands. G. Proposed model for the mechanism of action of 4D7 on mutant CALR. […]"}, "[2]": {"system": "primary CD34+ cells from patients with CALR mutant myelofibrosis", "experiment": "TPO-independent megakaryocyte colony formation on collagen-based medium (MegaCult)", "from_the_text": "Patient samples were collected with informed consent from the South Australian Cancer Research Biobank (SACRB: Adelaide, Australia). Primary CD34+ stem/progenitor cells from peripheral blood samples from patients with JAK2^V617F or CALR mutant myelofibrosis were purified by flow cytometry using CD34-APC antibody, anti-human CD45RA Brilliant Violet 605, anti-CD90 FITC, anti-human CD123-PE, anti-human CD38 PE-Cy7, or with CD34-APC antibody, anti-human CD3 FITC, anti-human CD19-PE (clone H1B19) and anti-human CD14 PE-Cy7.\n(§1) For megakaryocyte differentiation assays, CD34+ cells derived from cord blood or from patient peripheral blood mononuclear fractions were plated in Megacult (MegaCult™-C Collagen and Medium with Lipids) with added IL-3 and IL-6 (10 ng/ml) in the presence or absence of 50 ng/mL TPO. Cells were plated at an initial density of 1800 cells/well and cultured for 12 days at 37° C. and 5% CO2. […] Culture media was replenished every 3 days and cells were assessed for megakaryocyte differentiation on day 12 using anti-human CD41/61 PE-Cy7 (Clone A2A9/6) and CountBright beads (Thermo Fisher) to enumerate cell numbers. […] Cells were seeded at approximately 100 cells per well and were cultured in the presence of 20 μg/mL 4D7 or control IgG antibody and scored for colony and blast forming units at 12-14 days."}, "[3]": {"system": "healthy cord blood CD34+ cells", "experiment": "cells", "method": "Umbilical cord blood (UCB) was collected with written consent from full-term deliveries at the Women's Health Unit, Lyell McEwin Hospital (Adelaide, South Australia) or the Department of Obstetrics and Gynecology, Medical University of Graz (Austria) with institutional review board approval (IRB approval: 31-322 ex 18/19; HREC/20/WCHN/65). Samples were processed using a Ficoll-Paque (GE Healthcare) density gradient to isolate mononuclear cells (800×g, room temperature, 30 minutes, deceleration off), followed by red cell lysis (ammonium-chloride-potassium lysing buffer) to remove remaining red blood cells. CD34 enrichment was performed by magnetic cell separation using CD34 Microbead kit (Miltenyi Biotech). Alternatively, purified CD34+ cells from cord-blood were purchased from Lonza. CD34+ cells with a purity above 90% were either cryopreserved or directly cultured in serum-free stem cell retention media (StemSpan SFEMII, Stemcell Technologies, Vancouver, BC, Canada) supplemented with human recombinant SCF, TPO, FLT3, IL-6 (all 20 ng/mL), UM729 (1.75 uM) and StemReginin 1 (SR1, 300 nM). All cytokines and SRI were purchased from PeproTech (Rocky Hill, NJ, USA) whereas UM729 was purchased from Stemcell Technologies.\nas §1"}}, "data": [{"molecule": "B1", "values": [{"measurement": "time at which caspase 3 cleavage occurred", "setting": "[1]", "result": "≤ 24", "unit": "h"}, {"measurement": "time at which caspase 3 cleavage peaked", "setting": "[1]", "result": 48, "unit": "h"}, {"measurement": "decrease of primary TPO-independent megakaryocyte colonies (colony-forming unit-mega)", "setting": "[2]; 20 μg/mL vs IgG, n=4 patient samples", "result": 46, "unit": "%"}, {"measurement": "size of megakaryocyte colonies", "setting": "[2]; patient with a type 2 mutation", "result": "substantially smaller"}, {"measurement": "effect on normal hematopoiesis", "setting": "[3]", "result": "no effect"}]}]}
